Positions count from the first letter of the chain named.
B1: HVHP429S (antibody, V domains shown)
VH: EVQLVESGGTLVQPGGSLRLSCAASGFTFINYAMSWVRQAPDKGLDWVCTISNNGGATYYADSVKGRFTCSRDNSNNTLYLQMNSLRPDDTAVYYCAKGPINTGRYGDWGQGTLVTVSS
notes: Cys49/Cys69 (Kabat) mutant of HVHP429; VH single-domain antibody; tag not specified
B2: HVHP419S (antibody, V domains shown)
VH: QLQLQESGGGLVQPGGSLRLSCAASGFTFSSYAMSWVRQAPGKGLEWVCAISGSGGSTYYADSVKGRFTCSRDNSKNSLYLQMNSLGAEDTAVYYCARSWSGSSYGGDLDSWGQGTLVTVSS
notes: Cys49/Cys69 (Kabat) mutant of HVHP419; VH single-domain antibody; tag not specified
B3: HVHM41S (antibody, V domains shown)
VH: QVQLVQSGGGLVQPGRSLRLSCAASGFAFSSYAMSWVRQAPGKGLEWVCAISGGGDHTYYADSVKGRFTCSRDNSKNTLYLQMNSLRAEDTAVYYCAKEGMVRGVSSAPFDYWGQGTLVTVSS
notes: Cys49/Cys69 (Kabat) mutant of HVHM41; VH single-domain antibody; tag not specified
B4: HVHPC235S (antibody, V domains shown)
VH: QVQLVESGGGLIKPGGSLRLSCAASGFSVISESMTWVRQAPGKGLEWVCAISSSGGSTYYADSVKGRFTCSRDNSKNTVHLQMNSLRAEDTAVYYCAAKKIDGARYDYWGQGTMVTVSS
notes: Cys49/Cys69 (Kabat) mutant of HVHPC235; VH single-domain antibody; tag not specified; also called HVHAmC235S; HVHP235S
B5: HVHM81S (antibody, V domains shown)
VH: EVQLVQSGGGLVQPGRSLRLSCAASGFTFDDYAMHWVRQAPGKGLEWVCGISGSGASTYYADSVKGRFTCSRDNSKNTLYLQMNSLRAGDTALYYCARQSITGPTGAFDVWGQGTMVTVSS
notes: Cys49/Cys69 (Kabat) mutant of HVHM81; VH single-domain antibody; tag not specified
B6: HVLHLEM (antibody, V domains shown)
VL: DIQMTQSPSSLSASVGDRVTITCQASQGIEMFLQWYQQKPGKAPKLLCFAASTLQSGVPSRFSCSGSGTDFTLTISNLQPEDFATYYCVQPGVAPPPGTFGHGTKVTVL
notes: Anti-human lysozyme VL single-domain antibody from the HVLP324S library (Cys48/Cys64); not shown: C-terminal His6 tag
B7: HVLHLNN (antibody, V domains shown)
VL: DIQMTQSPSSLSASVGDRVTITCSASQSINNRLYWYQQKPGKAPKLLCFPASFLFSGVPSRFSCSGSGTDFTLTISNLQPEDFATYYCQQSYSTPRTFGHGTKVTVL
notes: as for B6
B8: HVLHLDS (antibody, V domains shown)
VL: B7 VL with S24T, A25V, S28G, N30D, N31S, F53L, F55E
notes: as for B6
B9: HVLHLNE (antibody, V domains shown)
VL: B7 VL with S24D, N31E, F53I, F55T, Q89R, S91P, Y92R, T94G, R96S
notes: as for B6
B10: HVLHLYS (antibody, V domains shown)
V domain: DIQMTQSPSSLSASVGDRVTITCQASQSIYSKLYWYQQKPGKAPKLLCFPASLLWSGVPSRFSCSGSGTDFTLTISNLQPEDFATYYCLQNAADPHRTFGHGTKVRL
notes: as for B6
B11: HVLHLQI (antibody, V domains shown)
VL: DIQMTQSPSSLSASVGDRVTITCRASQSIQIMLDWYQQKPGKAPKLLCFGASFLISGVPSRFSCSGSGTDFTLTISNLQPEDFATYYCRQTWTPPAPTFGHGTKVTVL
notes: as for B6
B12: HVLHLRN (antibody, V domains shown)
VL: DIQMTQSPSSLSASVGDRVTITCKASQGIRNRLYWYQQKPGKAPKLLCFPASILDSGVPSRFSCSGSGTDFTLTISNLQPEDFATYYCAQQPGLPNSRTFGHGTKVTVL
notes: as for B6
B13: HVLHLAQ (antibody, V domains shown)
VL: DIQMTQSPSSLSASVGDRVTITCGASQSIAQRLYWYQQKPGKAPKLLCFPASLLHSGVPSRFSCSGSGTDFTLTISNLQPEDFATYYCAQRASPPRPTFGHGTKVTVL
notes: as for B6
B14: HVHAm431 (antibody, V domains shown)
VH: QVQLVESGGGLIKPGGSLRLSCAASGYTVSSECMGWVRQAPGKGLEWVSAISSSGGSTYYADSVKGRFTISRDNSKNTVYLQMNSLRAEDTAVYYCVRDSKNCHDKDCTRPYCSWGQGTMVTVSS
notes: Human VH single-domain antibody (wild-type), tested alone; tag not specified
B15: HVHAm431S (antibody, V domains shown)
VH: B14 VH with S49C, G55S, I70C
notes: Cys49/Cys69 (Kabat) mutant of HVHAm431; VH single-domain antibody; tag not specified
B16: HVHB82S (antibody, V domains shown)
VH: QVQLQESGGGLVQPGGSLRLSCAASGFTFSSYAMSWVRQAPGKGLEWVCAISGSGGSTYYADSVKGRFTCSRDNSKNTLYLQMNSLRAEDTAVYYCGTDMEVWGKGTTVTVSS
notes: Cys49/Cys69 (Kabat) mutant of HVHB82; VH single-domain antibody; tag not specified
B17: HVHPC235 (antibody, V domains shown)
VH: B4 VH with C49S, C70I, E89D
notes: Human VH single-domain antibody (wild-type), tested alone; tag not specified; also called HVHAmC235; HVHC235
B18: HVHP426S (antibody, V domains shown)
VH: QVQLVQSGGGVVQPGRSLRLSCAASGFIVDGYAMHWVRQAPGQGLEWVCVTNNGGSTSYADSVKGRFTCSRDNSKNTVYLQMNSLRAEDTAVYYCARQSITGPTGAFDIWGQGTMVTVSS
notes: Cys49/Cys69 (Kabat) mutant of HVHP426; VH single-domain antibody; tag not specified
B19: HVHAm302 (antibody, V domains shown)
VH: QVQLVESGGGLIKPGGSLRLSCAASGDTVSDESMTWVRQAPGKGLEWVSAISSSGGSTYYADSVKGRFTISRDNSKNTVYLQMNSLRAEDTAVYYCVTDNRSCQTSLCTSTTRSWGQGTMVTVSS
notes: Human VH single-domain antibody (wild-type), tested alone; monomer peak used for SPR; tag not specified
B20: HVHAm302S (antibody, V domains shown)
VH: B19 VH with S49C, I70C
notes: Cys49/Cys69 (Kabat) mutant of HVHAm302; VH single-domain antibody; tag not specified
B21: HVHP420S (antibody, V domains shown)
VH: QVQLVESGGGLVKPGGSLRLSCAASGFTFSNAWMTWVRQAPGKGLEWVCRIKTKTDGGTTDYAAPVKGRFTCSRDDSKNTLYLQMNSLKTEDTAVYYCTTDRDHSSGSWGQGTLVTVSS
notes: Cys49/Cys69 (Kabat) mutant of HVHP420; VH single-domain antibody; tag not specified
B22: HVHP428S (antibody, V domains shown)
VH: QLQLQESGGGLVQPGGSLRLSCAASGFTFSSYAMSWFRQAPGKGLEWVCFIRSKAYGGTTEYAASVKGRFTCSRDDSKSIAYLQMNSLRAEDTAMYYCARRAKDGYNSPEDYWGQGTLVTVSS
notes: Cys49/Cys69 (Kabat) mutant of HVHP428; VH single-domain antibody; tag not specified
B23: HVHP430S (antibody, V domains shown)
VH: QVQLVESGGGLIKPGGSLRLSCAASGFTFSNYAMSWVRQAPGKGLEWVCAISSSGGSTYYADSVKGRFTCSRDNSKNTVYLQMNSLRAEDTAVYYCVREEYRCSGTSCPGAFDIWGQGTMVTVSS
notes: Cys49/Cys69 (Kabat) mutant of HVHP430; VH single-domain antibody; tag not specified
B24: HVHP421S (antibody, V domains shown)
VH: QLQLQESGGGVVQPGRSLRLSCAASGFTFSSYAMSWVRQAPGKGLEWVCAISGSGGSTYYADSVKGRFTCSRDNSKNTLYLQMNSLRAEDTAVYYCAKDGKGGSSGYDHPDYWGQGTLVTVSS
notes: Cys49/Cys69 (Kabat) mutant of HVHP421; VH single-domain antibody; tag not specified
B25: HVHAm427 (antibody, V domains shown)
VH: QVQLVESGGGLIKPGGSLRLSCAASGVTLSPECMAWVRQAPGKGLEWVSAISSSGGSTYYADSVKGRFTISRDNSKNTVYLQMNSLRAEDTAVYYCVSCEGENAFWGQGTMVTVSS
notes: as for B14
B26: HVHAm427S (antibody, V domains shown)
VH: B25 VH with S49C, I70C
notes: Cys49/Cys69 (Kabat) mutant of HVHAm427; VH single-domain antibody; tag not specified
B27: HVHP413S (antibody, V domains shown)
VH: QVQLVQSGGGLVKPGGSLRLSCAASGFTFSDYYMSWVRQAPGKGLEWVCFIYSGGSTYYADSVKGRFTCSRDNSKNTLYLQMNSLRAEDTAVYYCARESRVGGGAFDIWGQGTMVTVSS
notes: Cys49/Cys69 (Kabat) mutant of HVHP413; VH single-domain antibody; tag not specified
B28: HVHP414S (antibody, V domains shown)
VH: DVQLVQSGGGLVKPGGSLRLSCTASGFPFSNAWMSWVRQAPGKGLEWVCRITSKTDGGTTDYVAPVKGRFTCSRDDSKNTLYLQMNSLKTEDTAVYYCTTDQANAFDIWGQGTMVTVSS
notes: Cys49/Cys69 (Kabat) mutant of HVHP414; VH single-domain antibody; tag not specified

These binders were tested against T1, protein A (UniProt P38507 37-477) (assay: SPR (Biacore 3000), VH over immobilized protein A; value in parentheses obtained with higher concentration of monomer (footnote d)).
T1 construct: Bought (Pierce); immobilized on CM5 chip by amine coupling; also called recombinant protein A
Description: For mutant VHs (HVHP44S, HVHB82S, HVHP421S, HVHP419S, HVHP430S, HVHP429S, HVHM81S, HVHP428S, HVHP420S, HVHM41S, HVHP423S, HVHP413S, HVHP426S, and HVHP414S), approximately 1,170 RUs and 1,240 RUs of recombinant protein A and ovalbumin (reference protein), respectively, were immobilized on research grade sensor chip CMS. Immobilizations were carried out at 50 μg/mL in 10 mM acetate buffer (pH 4.5 for both protein A and ovalbumin) using the amine coupling kit supplied by the manufacturer. All measurements were carried out at 25° C. in HBS-EP buffer at a flow rate of 20 μL/min or 40 μL/min for HVHB82S, HVHP421S, HVHP429S, HVHM41S, HVHM81S, HVHP423S, HVHP413S, HVHP426S, and HVHP414S or HVHP44S, HVHP419S, HVHP430S, HVHP428S, and HVHP420S, respectively. The protein A binding property of the wild-type counterparts were determined previously (To et al 2005).

| Binder | Kd [nM] |
| --- | --- |
| B1 | 3400 |
| B2 | 3200 |
| B3 | 1800 |

The binders below were run against T1, protein A (assay: SPR, KD of the mutant against KD of the wild-type VH on protein A).

| Binder | fold reduction in protein A binding (increase in KD) against wild-type HVHPC235 [fold] | fold reduction in protein A binding (increase in KD) against wild-type HVHM81 [fold] |
| --- | --- | --- |
| B4 | 10 |  |
| B5 |  | 1.6 |

These binders were tested against T2, human lysozyme (human, UniProt P61626 19-148) (assay: SPR (Biacore 3000), human lysozyme over immobilized VL).
T2 construct: Bought; passed through Superdex 75 before SPR
T2 sequence (looked up): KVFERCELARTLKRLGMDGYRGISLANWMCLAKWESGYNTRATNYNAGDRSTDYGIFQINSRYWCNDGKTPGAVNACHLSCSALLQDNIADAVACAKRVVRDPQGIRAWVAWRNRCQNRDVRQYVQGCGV
Description: The affinities (KDs) of the anti-human lysozyme VLs to their antigen, human lysozyme, was also determined. The binding of human lysozyme to immobilized anti-human lysozyme VL binders was determined by surface plasmon resonance (SPR) using BIACORE 3000 (GE Healthcare). […] Immobilizations were carried out at concentrations of 10 μg/mL in 10 mM acetate at pH 4.5 using the amine coupling kit supplied by the manufacturer. Human lysozyme was passed through a Superdex 75 column (GE Healthcare) in HBS-EP buffer (10 mM HEPES, pH 7.4, 150 mM NaCl, 3 mM EDTA and 0.005% P20 surfactant) with flow rate of 0.5 mL/min to eliminate any possible aggregates prior to Biacore analysis. For the binding studies, analyses were carried out at 25° C. in 10 mM HEPES, pH 7.4 containing 150 mM NaCl, 3 mM EDTA and 0.005% surfactant P20. The flow rates used were 20 μL/min. For regeneration the surfaces were washed for 15 min with the running buffer. Data were analyzed with BIAevaluation 4.1 software. From the SPR profiles (FIG. 15), it can be seen that the anti-human lysozyme VLs indeed bind to their target antigen, lysozyme, confirming the binding results obtained by phage ELISA.

| Binder | Kd [nM] |
| --- | --- |
| B6 | > 73000 |
| B7 | 200 |
| B8 | 6100 |
| B9 | 60 |
| B10 | 6400 |
| B11 | 2600 |
| B12 | 50 |
| B13 | 200 |

What follows are binders tested against T1, protein A (assay: SPR (Biacore 3000), VH over immobilized protein A).
Description: Immobilizations were carried out at 50 μg/mL in 10 mM acetate buffer, pH 4.5, using the amine coupling kit supplied by the manufacturer (GE Healthcare). All measurements were carried out at 25° C. in HBS-EP buffer at a flow rate of 50 μL/min. Surfaces were regenerated by washing with the running buffer.

| Binder | Kd [nM] |
| --- | --- |
| B14 | 4000 |
| B15 | 8000 |
| B1 | 5500 |
| B16 | 1200 |
| B17 | 300 |
| B4 | 3000 |
| B18 | 3400 |
| B19 | 3000 |
| B20 | 10000 |
| B2 | 4800 |
| B21 | 2200 |
| B22 | 1600 |
| B5 | 2100 |
| B23 | 7700 |
| B24 | 2800 |
| B25 | 1600 |
| B26 | 4000 |
| B27 | 1500 |
| B28 | 1800 |
| B3 | 1500 |
